Measurements as given in patent US20220025071A1.

Assays:
[1] = biological target: Recombinant human Fc gamma receptor I, CD64 (human) (UniProt P12314)
[2] = biological target: Recombinant human Fc gamma receptor IIIa, CD16a 158V (human) (UniProt P08637)
[3] = biological target: Recombinant human Fc gamma receptor IIa, CD32a 131H (human) (UniProt P12318)
[4] = biological target: Recombinant human Fc gamma receptor IIb/c, CD32b/c (human) (UniProt P31994)
[5] = biological target: Recombinant human Fc gamma receptor IIa, CD32a 131R (human) (UniProt P12318)
Recombinant human Fc gamma receptor IIa, CD32a 131R (human), sequence (P12318 36-218 H167R): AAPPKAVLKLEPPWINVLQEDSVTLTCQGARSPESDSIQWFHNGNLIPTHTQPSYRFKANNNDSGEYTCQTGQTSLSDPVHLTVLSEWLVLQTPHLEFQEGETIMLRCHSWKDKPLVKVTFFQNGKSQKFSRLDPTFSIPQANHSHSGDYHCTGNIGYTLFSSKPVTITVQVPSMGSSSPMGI

[6] = biological target: Recombinant human Fc gamma receptor IIIb, CD16b (human) (UniProt O75015)
Recombinant human Fc gamma receptor IIIb, CD16b (human), sequence (O75015 17-200 limits assumed): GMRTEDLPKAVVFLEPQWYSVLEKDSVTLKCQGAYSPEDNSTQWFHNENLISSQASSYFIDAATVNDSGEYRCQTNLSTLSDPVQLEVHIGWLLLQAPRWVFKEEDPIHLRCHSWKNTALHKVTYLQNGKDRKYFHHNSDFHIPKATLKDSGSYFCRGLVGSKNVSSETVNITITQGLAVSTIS

CD20 Lipoparticles = CD20 Lipoparticles (UniProt P11836)
CD20 Lipoparticles, sequence (P11836 whole entry): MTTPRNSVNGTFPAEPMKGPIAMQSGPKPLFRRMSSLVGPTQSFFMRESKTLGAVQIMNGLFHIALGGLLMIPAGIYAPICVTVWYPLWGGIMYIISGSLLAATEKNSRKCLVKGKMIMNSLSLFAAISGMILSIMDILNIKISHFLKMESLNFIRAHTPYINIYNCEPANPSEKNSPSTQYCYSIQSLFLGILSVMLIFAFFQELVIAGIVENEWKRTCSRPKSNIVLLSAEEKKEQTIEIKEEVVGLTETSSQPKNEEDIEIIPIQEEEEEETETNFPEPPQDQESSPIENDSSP

Recombinant human Fc gamma receptor IIIa, CD16a 158V (human), sequence (P08637 17-208 F176V limits assumed): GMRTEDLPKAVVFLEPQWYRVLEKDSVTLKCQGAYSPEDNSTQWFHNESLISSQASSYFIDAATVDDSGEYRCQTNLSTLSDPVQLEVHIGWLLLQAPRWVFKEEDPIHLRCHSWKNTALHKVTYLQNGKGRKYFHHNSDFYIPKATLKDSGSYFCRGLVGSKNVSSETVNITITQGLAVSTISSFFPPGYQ
Recombinant human Fc gamma receptor IIa, CD32a 131H (human), sequence (P12318 36-218): as the sequence (P12318 36-218 H167R) above, with R132H counted along it
Recombinant human Fc gamma receptor I, CD64 (human), sequence (P12314 16-288 limits assumed): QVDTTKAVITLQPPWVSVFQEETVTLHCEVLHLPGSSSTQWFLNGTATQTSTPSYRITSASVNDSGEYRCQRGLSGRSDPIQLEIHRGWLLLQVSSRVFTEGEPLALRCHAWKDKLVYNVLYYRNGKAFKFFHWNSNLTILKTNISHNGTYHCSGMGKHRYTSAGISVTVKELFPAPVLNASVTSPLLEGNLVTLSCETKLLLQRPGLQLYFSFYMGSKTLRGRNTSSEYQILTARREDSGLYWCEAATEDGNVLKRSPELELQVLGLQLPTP
Recombinant human Fc gamma receptor IIb/c, CD32b/c (human), sequence (P31994 46-217): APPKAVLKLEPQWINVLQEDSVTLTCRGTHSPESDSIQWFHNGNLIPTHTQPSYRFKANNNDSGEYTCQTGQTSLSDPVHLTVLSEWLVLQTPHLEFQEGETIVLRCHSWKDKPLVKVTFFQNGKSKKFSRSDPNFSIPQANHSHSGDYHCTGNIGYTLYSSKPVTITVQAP

Rituxan (antibody)
Kd [1]: 52.8 nM | Kd [2]: 715 nM | Kd [3]: 892 nM | Kd [4]: 1520 nM | Kd [5]: 1250 nM | Kd [6]: 1530 nM | Kd (CD20 Lipoparticles): < 0.001 nM
